Reference: patent US20180141988A1 (Pieris, published 2018)

Experiments:
[1] = target: T1, cynomolgus GPC3 on stably transfected SK-HEP-1 cells (cynomolgus, UniProt A0A2K5VK50 24-553); assay: MSD-based (ECL) cell binding assay on transfected SK-HEP-1 cells
T1 construct: whole, on cells; also called SK-HEP-1::cyno GPC3; SK-HEP-1::cynomolugus GPC3
Procedure: (§1) Binding of optimized lipocalin muteins of SEQ ID NOs: 5-16 to human, cynomolgus and mouse GPC3 compared to SEQ ID NOs: 3 and 4 was tested on SK-HEP-1 cells using an ECL format (FIG. 1). In this experiment, dilution series of lipocalin muteins were incubated on MSD plates coated with human, cynomolgus or mouse GPC3 overexpressing SK-HEP-1 cells.
(§2) SEQ ID NOs: 3, 4, 5, 7, 8, 9, 10, 12, 13, 14, 15 and 16 (using 1000 nM as starting concentration) were serially diluted at a 1:3 ratio down to the picomolar range in PBS/Casein. 20 μl of the dilution series were transferred to the SK-HEP-1-coated plates for 1 hour at room temperature.
(§3) To allow for detection and quantification of bound GPC3 specific lipocalin muteins, the residual supernatants were discarded and 20 μl of a mixture of rabbit anti scaffold antibody (2 μg/ml) and Sulfotag labelled anti rabbit antibody (5 μg/ml) prepared in PBS/casein was added to the wells and incubated for 1 h at RT. After washing, 35 μl surfactant-free reading buffer was added to each well and the ECL intensity of every well was read using a MSD reader.

[2] = target: T2, human GPC3 on stably transfected SK-HEP-1 cells (human, UniProt P51654 25-554); assay: as above
T2 construct: whole, on cells; also called SK-HEP-1::human GPC3
Procedure: as §1, §2, §3

[3] = target: T3, mouse GPC3 on stably transfected SK-HEP-1 cells (mouse, UniProt Q8CFZ4 25-553); assay: as above
T3 construct: whole, on cells; also called SK-HEP-1::mouse GPC3; murine GPC3
Procedure: as §1, §2, §3

[4] = target: T4, murine GPC3 (6938-GP; R&D systems), biotinylated (murine, UniProt Q8CFZ4 25-558, limits assumed, biotinylated using standard NHS chemistry); assay: SPR (Biacore T200), biotinylated GPC3 captured on chip, mutein in flow
T4 construct: Bought protein; also called mouse GPC3
Procedure: (§4) SPR analysis of the binding of the optimized Lcn2 muteins to human and mouse GPC3 was performed at 25° C. on a Biacore T200 instrument (GE Healthcare) using HBS-EP+ (1x; BR-1006-69; GE Healthcare) as running buffer. The Biotin CAPture Kit (GE Healthcare) was used to immobilize biotinylated GPC3 to a chip surface. Human GPC3 (2119-GP; R&D systems) and murine GPC3 (6938-GP; R&D systems) were biotinylated using standard NHS chemistry. Undiluted Biotin CAPture Reagent (streptavidin conjugated with ss-DNA oligo) was captured on a Sensor Chip CAP with the pre-immobilized complementary ss-DNA oligo. Thereafter, biotinylated human or murine GPC3 at 1 μg/ml was applied for 300 s at a flow rate of […].
(§5) Lcn2 muteins were applied in concentrations of 10 nM, 40 nM and 160 nM at a flow rate of 30 μL/min. The dilutions were injected with association times of 180 s and dissociation times of 600 s to obtain ka and kd information. Regeneration of the chip surface was achieved by injecting 6 M Guanidinium-HCl+0.25 M NaOH (120 s) with a flow rate of 10 μL/min. Injection of regeneration solutions was followed by an extra wash step with H₂O and a stabilization period of 120 s.
(§6) The data were double-referenced by subtraction of the corresponding signals measured for the control channel (loaded with Biotin CAPture reagent only) and by subtraction of buffer injections from the binding responses. Association rate constant ka and dissociation rate constant kd for the binding reaction were determined using Biacore T200 Evaluation Software V2.0 for data processing and kinetic fitting. The data were globally fit with 1:1 binding model.

[5] = target: T5, Human GPC3 (2119-GP; R&D systems), biotinylated (human, UniProt P51654 25-559, biotinylated using standard NHS chemistry); assay: as above
T5 construct: Bought protein; also called human Glypican-3
Procedure: as §4, §5, §6

T4 sequence (Q8CFZ4 25-558 limits assumed): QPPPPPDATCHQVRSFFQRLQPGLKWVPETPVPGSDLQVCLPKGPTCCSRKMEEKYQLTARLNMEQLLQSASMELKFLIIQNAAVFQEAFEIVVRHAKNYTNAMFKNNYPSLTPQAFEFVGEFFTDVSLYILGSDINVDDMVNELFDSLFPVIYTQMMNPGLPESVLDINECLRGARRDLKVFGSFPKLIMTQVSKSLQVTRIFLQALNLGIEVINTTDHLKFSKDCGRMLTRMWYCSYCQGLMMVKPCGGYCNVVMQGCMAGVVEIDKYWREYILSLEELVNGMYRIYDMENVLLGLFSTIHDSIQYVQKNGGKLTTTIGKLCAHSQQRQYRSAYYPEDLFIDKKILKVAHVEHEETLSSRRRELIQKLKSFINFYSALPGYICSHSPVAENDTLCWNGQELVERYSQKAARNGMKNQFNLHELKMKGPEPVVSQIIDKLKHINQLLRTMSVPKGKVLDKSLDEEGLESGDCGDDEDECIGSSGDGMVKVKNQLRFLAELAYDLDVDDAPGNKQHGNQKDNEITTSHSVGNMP
T3 sequence (Q8CFZ4 25-553 limits assumed): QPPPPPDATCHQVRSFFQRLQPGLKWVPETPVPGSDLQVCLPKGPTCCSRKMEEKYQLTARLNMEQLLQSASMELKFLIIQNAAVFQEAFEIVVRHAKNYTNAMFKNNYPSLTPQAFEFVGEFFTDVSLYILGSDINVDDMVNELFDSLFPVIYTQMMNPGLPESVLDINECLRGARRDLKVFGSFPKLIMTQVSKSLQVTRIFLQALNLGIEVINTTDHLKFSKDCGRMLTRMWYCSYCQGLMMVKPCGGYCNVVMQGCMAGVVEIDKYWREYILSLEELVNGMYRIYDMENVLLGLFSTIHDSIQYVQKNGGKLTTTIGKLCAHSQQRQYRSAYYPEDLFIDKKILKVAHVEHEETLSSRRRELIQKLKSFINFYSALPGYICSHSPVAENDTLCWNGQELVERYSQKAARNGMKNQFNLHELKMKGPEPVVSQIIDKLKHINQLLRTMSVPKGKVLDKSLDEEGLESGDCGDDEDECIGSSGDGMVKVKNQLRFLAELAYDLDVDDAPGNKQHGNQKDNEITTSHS
T5 sequence (P51654 25-559 limits assumed): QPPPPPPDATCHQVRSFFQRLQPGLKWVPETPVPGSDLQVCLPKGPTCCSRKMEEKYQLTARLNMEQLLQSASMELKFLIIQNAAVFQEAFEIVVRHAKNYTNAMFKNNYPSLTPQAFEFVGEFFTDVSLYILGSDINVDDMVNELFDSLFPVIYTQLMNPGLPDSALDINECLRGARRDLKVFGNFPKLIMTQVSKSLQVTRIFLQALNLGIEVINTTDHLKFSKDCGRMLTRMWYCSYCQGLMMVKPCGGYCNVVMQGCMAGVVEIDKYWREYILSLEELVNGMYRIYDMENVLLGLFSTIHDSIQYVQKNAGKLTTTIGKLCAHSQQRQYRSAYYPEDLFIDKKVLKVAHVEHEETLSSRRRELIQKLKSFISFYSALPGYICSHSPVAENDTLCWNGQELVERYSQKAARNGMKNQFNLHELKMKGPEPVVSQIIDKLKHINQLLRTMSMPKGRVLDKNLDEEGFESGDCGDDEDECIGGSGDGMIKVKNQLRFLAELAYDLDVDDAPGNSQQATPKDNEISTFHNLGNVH
T2 sequence (P51654 25-554 limits assumed): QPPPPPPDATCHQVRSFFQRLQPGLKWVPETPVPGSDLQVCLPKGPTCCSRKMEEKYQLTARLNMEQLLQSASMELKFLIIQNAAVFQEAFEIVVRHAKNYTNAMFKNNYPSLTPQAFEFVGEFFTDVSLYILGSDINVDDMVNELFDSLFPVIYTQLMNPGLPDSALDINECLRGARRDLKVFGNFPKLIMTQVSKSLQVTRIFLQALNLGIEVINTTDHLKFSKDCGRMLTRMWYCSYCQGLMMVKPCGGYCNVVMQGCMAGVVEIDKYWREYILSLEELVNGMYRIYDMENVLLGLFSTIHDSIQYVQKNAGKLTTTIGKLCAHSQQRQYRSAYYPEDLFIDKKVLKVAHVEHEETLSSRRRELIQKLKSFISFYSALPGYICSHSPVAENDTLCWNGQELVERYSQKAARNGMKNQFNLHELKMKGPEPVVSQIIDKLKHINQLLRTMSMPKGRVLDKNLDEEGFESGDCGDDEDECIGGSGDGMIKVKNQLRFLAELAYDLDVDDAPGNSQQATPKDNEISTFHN

| Binder | EC50 [1] [nM] | EC50 [2] [nM] | EC50 [3] [nM] | Kd [4] [nM] | koff [4] [s⁻¹] | kon [4] [M⁻¹ s⁻¹] | Kd [5] [nM] | koff [5] [s⁻¹] | kon [5] [M⁻¹ s⁻¹] |
| --- | --- | --- | --- | --- | --- | --- | --- | --- | --- |
| lipocalin mutein of SEQ ID NO: 8 (designed binder, hNGAL (Lcn2) mutein; also called optimized GPC3 specific lipocalin mutein) QDSTSDLIPAPPLSKVPLQQNFQDNQFQGKWYVVGRAGNVGLREDKDPPKMWATIYELKEDKSYDVTNVRFARKKCLYSIGTFVPGSQPGEFTLGQIKSEPGNTANLVRVVSTNYNQHAMVFFKEVYQNREIFFIILYGRTKELTSELKENFIRFSKSLGLPENHIVFPVPIDQCIDGSAWSHPQFEK | 2.3 | 1.4 | 5.3 | 0.096 | 0.00018 | 1.9e+06 | 0.068 | 0.00013 | 2e+06 |
| lipocalin mutein of SEQ ID NO: 12 (designed binder, hNGAL (Lcn2) mutein; also called optimized GPC3 specific lipocalin mutein) QDSTSDLIPAPPLSKVPLQQNFQDNQFQGKWYVVGRAGNVALREDKDPPKMRATIYELKEDKSYDVTNVVFAGKKCKYSIGTFVPGSQPGEFTLGRIKSPPGNTANLVRVVSTNYNQHAMVFFKEVYQNREIFFIILYGRTKELTSELKENFIRFSKSLGLPENHIVFPVPIDQCIDGSAWSHPQFEK | 1.7 | 2 | 5.3 | 0.058 | 0.0003 | 5.1e+06 | 0.037 | 0.00024 | 6.5e+06 |
| lipocalin mutein of SEQ ID NO: 11 (designed binder, hNGAL (Lcn2) mutein; also called optimized GPC3 specific lipocalin mutein) QDSTSDLIPAPPLSKVPLQQNFQDNQFQGKWYVVGRAGNVALREDKDPPKMRATIYELKEDKSYDVTAVRFARKKCLYSIGTFVPGSQPGEFTLGRIKSEPGYTANLVRVVSTNYNQHAMVFFKEVYQNREIFFIILYGRTKELTSELKENFIRFSKSLGLPENHIVFPVPIDQCIDGSAWSHPQFEK |  |  |  | 0.011 | 3.2e-05 | 2.9e+06 | 0.027 | 4.6e-05 | 1.7e+06 |
| lipocalin mutein of SEQ ID NO: 14 (designed binder, hNGAL (Lcn2) mutein; also called optimized GPC3 specific lipocalin mutein) QDSTSDLIPAPPLSKVPLQQNFQDNQFQGKWYVVGRAGNVGLREDKDPPKMWATIYELKEDKSYDVTNVRFAGKKVKYTIGTFVPGSQPGEFTLGQIKSEPGNTATLVRVVSTNYNQHAMVFFKEVYQNREIFFITLYGRTKELTSELKENFIRFSKSLGLPENHIVFPVPIDQAIDGSAWSHPQFEK | 15.4 | 9.5 | 6.7 | 1.59 | 0.0031 | 2e+06 | 0.819 | 0.002 | 2.4e+06 |
| lipocalin mutein of SEQ ID NO: 10 (designed binder, hNGAL (Lcn2) mutein; also called optimized GPC3 specific lipocalin mutein) QDSTSDLIPAPPLSKVPLQQNFQDNQFQGKWYVVGRAGNGALREDKDPPKMWATIYELKEDKSYDVTNVRFARKKCVYSIGTFVPGSQPGEFTLGPIKSEPGNTASLVRVVSTNYNQHAMVFFKEVYQNREIFFIILYGRTKELTSELKENFIRFSKSLGLPENHIVFPVPIDQCIDGSAWSHPQFEK | 0.8 | 0.8 | 3.8 | 0.093 | 0.00017 | 1.8e+06 | 0.063 | 0.00012 | 1.8e+06 |
| lipocalin mutein of SEQ ID NO: 13 (designed binder, hNGAL (Lcn2) mutein; also called optimized GPC3 specific lipocalin mutein) QDSTSDLIPAPPLSKVPLQQNFQDNQFQGKWYVVGRAGNLGLREDKDPPKMWATIYELKEDKSYDVTNVRFARKKCMYSIGTFVPGSQPGEFTLGQIKSEPGSTANLVRVVSTNYNQHAMVFFKEVYQNREIFFITLYGRTKELTSELKENFIRFSKSLGLPENHIVFPVPIDQCIDGSAWSHPQFEK | 0.6 | 0.9 | 2.9 | 0.09 | 0.00024 | 2.7e+06 | 0.07 | 0.00018 | 2.6e+06 |
| lipocalin mutein of SEQ ID NO: 4 (designed binder, hNGAL (Lcn2) mutein; also called non-optimized GPC3-specific Lcn2 mutein; mother clone) QDSTSDLIPAPPLSKVPLQQNFQDNQFHGKWYVVGRAGNVALREDKDPPKMRATIYELKEDKSYNVTNVRFAMKKCMYSIGTFVPGSQPGEFTLGQIKSEPGNTSNLVRVVSTNYNQHAMVFFKEVYQNREIFFITLYGRTKELTSELKENFIRFSKSLGLPENHIVFPVPIDQCIDGSAWSHPQFEK | 5.7 | 10.2 | 7.1 | 1.09 | 0.0028 | 2.6e+06 | 0.877 | 0.0022 | 2.5e+06 |
| lipocalin mutein of SEQ ID NO: 9 (designed binder, hNGAL (Lcn2) mutein; also called optimized GPC3 specific lipocalin mutein) QDSTSDLIPAPPLSKVPLQQNFQDNQFQGKWYVVGRAGNVGLREDKDPPKMWATIYELKEDKSYDVTNVRFARKKCTYSIGTFVPGSQPGEFTLGQIKSEPGGTANLVRVVSTNYNQHAMVFFKEVYQNREIFFIILYGRTKELTSELKENFIRFSKSLGLPENHIVFPVPIDQCIDGSAWSHPQFEK | 1.9 | 1.1 | 4.1 | 0.075 | 0.00015 | 2e+06 | 0.054 | 9.8e-05 | 1.8e+06 |
| lipocalin mutein of SEQ ID NO: 5 (designed binder, hNGAL (Lcn2) mutein; also called optimized GPC3 specific lipocalin mutein) QDSTSDLIPAPPLSKVPLQQNFQDNQFQGKWYVVGVAGNALLREDKDPLKMRATIYELKEDKSYDVTVVSFWRKKCHYKIGTFVPGSQPGEFTLGDIKSGPGQTSNLVRVVSTNYNQHAMVFFKEVRQNREWFAITLYGRTKELTSELKENFIRFSKSLGLPENHIVFPVPIDQCIDGSAWSHPQFEK | 33.9 | 24.1 | 25.6 | 0.207 | 0.00026 | 1.3e+06 | 0.119 | 0.0002 | 1.6e+06 |
| lipocalin mutein of SEQ ID NO: 6 (designed binder, hNGAL (Lcn2) mutein; also called optimized GPC3 specific lipocalin mutein) QDSTSDLIPAPPLSKVPLQQNFQDNQFQGKWYVVGVAGNVRLREDKDPPKMRATIYELKEDKSYDVTGVSFRGKKCHYKIGTFVPGSQPGEFTLGDIKSGPGETSNLVRVVSTNYNQHAMVFFKEVRQNREWFFITLYGRTKELTSELKENFIRFSKSLGLPENHIVFPVPIDQCIDGSAWSHPQFEK |  |  |  | 0.019 | 4.2e-05 | 2.2e+06 | 0.019 | 3.3e-05 | 1.8e+06 |
| lipocalin mutein of SEQ ID NO: 7 (designed binder, hNGAL (Lcn2) mutein; also called optimized GPC3 specific lipocalin mutein) QDSTSDLIPAPPLSKVPLQQNFQDNQFQGKWYVVGVAGNGMLREDKDPLKMRATIYELKEDKSYDVTSVAFRNKKCHYKIGTFVPGSQPGEFTLGQIKSGPGETSNLVRVVSTNYNQHAMVFFKEVRQNREWFFITLYGRTKELTSELKENFIRFSKSLGLPENHIVFPVPIDQCIDGSAWSHPQFEK | 2.8 | 2.5 | 4.8 | 0.145 | 0.00015 | 1e+06 | 0.097 | 0.00013 | 1.3e+06 |
| lipocalin mutein of SEQ ID NO: 3 (designed binder, hNGAL (Lcn2) mutein; also called non-optimized GPC3-specific Lcn2 mutein; mother clone) QDSTSDLIPAPPLSKVPLQQNFQDNQFHGKWYVVGVAGNAMLREDKDPLKMRATIYELKEDKSYNVTGVSFWRKKCHYKIGTFVPGSQPGEFTLGDIKSGPGQTSNLVRVVSTNYNQHAMVFFKEVRQNREWFAITLYGRTKELTSELKENFIRFSKSLGLPENHIVFPVPIDQCIDGSAWSHPQFEK | 29.9 | 24.3 | 29.8 | 0.674 | 0.0003 | 450000 | 0.387 | 0.00022 | 560000 |
